The target in assay [1] is T1, cynomolgus monkey CD40-his protein (Acro biosystems, Cat. No. CD0-C52H6) (cynomolgus monkey, UniProt G7PG38 21-193).
T1 construct: Bought protein; not shown: His tag
As to the kind of experiment: SPR (Biacore T200), antibody captured on anti-human IgG chip, CD40-his as analyte, 1:1 fit. An excerpt: (§1) Briefly, a goat anti-human IgG (GE Healthcare, Cat. No. BR100839, human antibody capture kit) was covalently linked to a CM5 chip (GE Healthcare, Cat. No. BR100530, carboxymethylated dextran-coated chip) via the primary amine group using a standard amine coupling kit supplied by Biacore (GE Healthcare, Pittsburgh, PA, USA). Unreacted portions on the biosensor surface were blocked with ethanolamine. Then, the anti-CD40 antibody of the present application and two benchmark antibodies (BM1 (dacetuzumab, Genentech Inc., also referred to CD40-BM1, prepared in-house; the heavy and light chain amino acid sequences are set forth in SEQ ID NOs: 40 and 41, respectively) and BM2 (selicrelumab, Abgenix Inc., also referred to CD40-BM2, prepared in-house; the heavy and light chain amino acid sequences are set forth in SEQ ID NOS: 42 and 43, respectively)) at a concentration of 66.67 nM were directed through the chip at a flow rate of 10 μL/min. Then, serially diluted recombinant human CD40-his (Acro biosystems, Cat. No. CD0-H5228, serially 2-fold diluted from 80 nM in HBS-EP⁺ buffer (supplied by Biacore)) or cynomolgus monkey CD40-his protein (Acro biosystems, Cat. No. CD0-C52H6, serially 2-fold diluted from 80 nM in HBS-EP⁺ buffer (supplied by Biacore)) was directed through the chip at a flow rate of 30 μL/min. The antigen-antibody binding kinetics was tracked for 2 min and the dissociation kinetics was tracked for 10 min. The association and dissociation curves were fitted to a 1:1 Langmuir binding model using BIAcore evaluation software. KD, Kₐ, and Kd values were determined.
A general note: Surface plasmon resonance follows binding to a sensor surface in real time, without labels.

In assay [2] the target is T2, recombinant human CD40-his (Acro biosystems, Cat. No. CD0-H5228) (human, UniProt P25942 21-193).
T2 construct: Bought protein; also called human CD40-his protein; not shown: His tag
Described as above.
Description: as §1

Assay [3] concerns the target T3, human CD40-Fc protein (human, biotinylated (sites not given) in the capture ELISA and the benchmark blocking ELISA; not biotinylated in the ligand blocking ELISA).
T3 construct: also called biotinylated human CD40-Fc
Put plainly: capture ELISA: antibody captured on coated goat anti-human IgG F(ab')2, biotinylated human CD40-Fc 1.15 nM, streptavidin-HRP, OD(450-630). As for the experimental part: (§2) The plate was washed once with a washing buffer (PBS+0.05% v/v of Tween-20, PBST) and then blocked with 200 μL/well blocking buffer (PBST containing 5% w/v of skim milk) for 2 h at 37° C. The plate was washed 4 times, and the anti-CD40 antibody of the present application, BM1, BM2, and a negative control hIgG (human immunoglobulin for intravenous injection (pH 4), Hualan Biological Engineering Inc.) serially 5-fold diluted from 66.7 nM in a PBST containing 2.5% w/v of skim milk was added at 100 μL per well. The plate was incubated for 40 min at 37° C. and washed 4 times. A biotinylated human CD40-Fc protein (amino acid residues 21-193 of SEQ ID NO: 30 linked to the N terminus of amino acid residues 99-330 of SEQ ID NO: 28, dissolved in PBST containing 2.5% w/v of skim milk at a concentration of 1.15 nM) was added at 100 μL/well to a 96-well plate coated with the anti-CD40 antibody. The plate was incubated at 37° C. for 40 min and washed 4 times. An HRP-labeled streptavidin (diluted at 1:10000 in PBST, Jackson Immuno Research, Cat. No. 016-030-084) was added at 100 μL/well, and the plate was incubated at 37° C. for another 40 min. After the last wash, 100 μL/well of ELISA substrate TMB (Innoreagents, Cat. No. TMB-S-002) was added and the plate was incubated at room temperature. After 3-10 min, the reaction was stopped by adding 1 M H₂SO₄ at 50 µL/well, and the absorbance of each well was read on a microplate reader using the dual wavelength mode (TMB detection wavelength: 450 nm, reference wavelength: 630 nm). Curves of OD(450-630) values vs. antibody concentration were plotted. Data were analyzed using Graphpad Prism software, and EC₅₀ values were obtained.
For orientation: ELISA stands for enzyme-linked immunosorbent assay.

Assay [4] concerns the target T3, human CD40-Fc protein. The assay is described as above. As for the experimental part: as §2
The source holds these as a separate data set.

In assay [5] the target is T2, recombinant human CD40-his (Acro …). Put plainly: BLI (Octet RED 96), antibody captured from cell supernatant on AHC sensor, human CD40-his as analyte, 1:1 fit. As for the experimental part:
After six days of culture in a shake flask, the cell supernatant containing the humanized antibodies huC1H1-V1 to huC1H1-V4 was harvested and the binding affinity of the antibodies to human CD40 was determined on an Octet system (Fortebio, Octet RED 96) according to the following procedures. Briefly, an anti-human IgG Fc capture (AHC) biosensor (from ForteBio) was pre-soaked in a 10 mM glycine solution (pH 1.5) for 3 s, and then soaked in a running buffer (PBST containing 0.5% w/v of BSA) for 3 s. The pre-soaking and soaking procedures were repeated 3 times. Then, the sensor was soaked in the cell supernatant containing the humanized anti-CD40 antibody, chimeric antibody C1H1 dissolved in HBS-EP⁺ buffer at a concentration of 5 μg/mL, or the benchmark dissolved in HBS-EP⁺ buffer at a concentration of 5 μg/mL for 120 s, and then soaked in the running buffer for 5 min. The new baseline was run in the running buffer for 180 s. The sensor was then soaked for 120 s in human CD40-his protein (Acro biosystems, Cat. No. CD0-H5228) 2-fold serially diluted from 40 nM in the running buffer and for 10 min in the running buffer […]. Finally, the sensor was pre-soaked in a 10 mM glycine solution (pH 1.5) for 3 s, and then soaked in the running buffer for 3 s. The pre-soaking and soaking procedures were repeated 3 times. The association and dissociation curves were fitted to a 1:1 Langmuir binding model using ForteBio Data Analysis 8.1.
On the technique in general: BLI is a label-free optical method that tracks binding on a fibre tip over time.

Read-outs that look alike come from different tables or passages of the source.

Results on five molecules are retold here after US20240398942A1 (CHIA TAI TIANQING PHARMACEUTICAL GROUP, published 2024).

T2 sequence (P25942 21-193 limits assumed): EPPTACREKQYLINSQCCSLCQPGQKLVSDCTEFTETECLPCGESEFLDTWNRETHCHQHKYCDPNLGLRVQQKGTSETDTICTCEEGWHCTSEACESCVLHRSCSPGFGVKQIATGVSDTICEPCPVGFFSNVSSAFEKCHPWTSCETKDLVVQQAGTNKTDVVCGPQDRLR
T3 sequence (chain, as listed by the source limits assumed): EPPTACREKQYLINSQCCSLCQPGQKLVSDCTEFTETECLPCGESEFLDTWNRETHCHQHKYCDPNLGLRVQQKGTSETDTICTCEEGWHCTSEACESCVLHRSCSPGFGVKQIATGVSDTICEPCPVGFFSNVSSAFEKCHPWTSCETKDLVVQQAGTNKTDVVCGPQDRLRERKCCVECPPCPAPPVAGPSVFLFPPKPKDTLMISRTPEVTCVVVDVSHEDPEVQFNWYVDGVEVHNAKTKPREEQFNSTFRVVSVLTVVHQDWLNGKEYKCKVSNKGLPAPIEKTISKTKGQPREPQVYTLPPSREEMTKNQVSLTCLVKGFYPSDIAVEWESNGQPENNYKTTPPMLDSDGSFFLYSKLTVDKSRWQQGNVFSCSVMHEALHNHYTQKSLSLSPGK

B1: chimeric antibody C1H1 (antibody, human IgG1, kappa, V domains shown)
VH: EVKLVESGGGLVKPGASLKLSCAASGFTFSNYGISWVRQTSDKRLEWVASISSGGDNTYYPDNVKGRFTISRENAKNTLYLQMSSLKSEDTALYYCARAGEKAMDYWGQGTSVTVSS
VL: DIVLTQSPVTLSVTPGDSVSLSCRASQTINNNLHWYQQKSHESPRLLIKYASQSISGIPSRFSGSGSGTDFTLSINSVETEDFGIYFCQQFSSWPLTFGAGTKLELKR
notes: also called Chimeric C1H1
Regarding B1, in assay [1], the affinity, expressed as Kd, was 1.06 nM; the koff stood at 0.00148 s⁻¹; the association rate constant (kon) turned out to be 1.39e+06 M⁻¹ s⁻¹. For the same molecule, in assay [2], the Kd is 0.861 nM, the koff was found to be 0.00157 s⁻¹ and the on-rate (kon) stood at 1.82e+06 M⁻¹ s⁻¹.

B2: BM1 (dacetuzumab) (antibody, human IgG1, kappa, V domains shown)
VH: EVQLVESGGGLVQPGGSLRLSCAASGYSFTGYYIHWVRQAPGKGLEWVARVIPNAGGTSYNQKFKGRFTLSVDNSKNTAYLQMNSLRAEDTAVYYCAREGIYWWGQGTLVTVSS
VL: DIQMTQSPSSLSASVGDRVTITCRSSQSLVHSNGNTFLHWYQQKPGKAPKLLIYTVSNRFSGVPSRFSGSGSGTDFTLTISSLQPEDFATYFCSQTTHVPWTFGQGTKVEIKR
notes: Benchmark antibody, prepared in-house; also called CD40-BM1; benchmark
For the molecule B2, in assay [1], the affinity, expressed as Kd, was 9.89 nM; the koff amounted to 0.00616 s⁻¹; the kon stood at 623000 M⁻¹ s⁻¹. Also, in assay [2], the Kd stood at 8.87 nM, the koff was found to be 0.00656 s⁻¹ and the kon turned out to be 739000 M⁻¹ s⁻¹. The same molecule had an EC50 with human CD40-Fc protein [3] of 0.628 nM. The molecule also returned a half-maximal effective concentration (EC50) with human CD40-Fc protein [4] of 0.463 nM.

B3: humanized antibody huC1H1-V1 (antibody, human IgG2, kappa, V domains shown)
VH: EVQLVESGGGLVKPGGSLRLSCAASGFTFSNYGISWVRQAPGKGLEWVASISSGGDNTYYPDNVKGRFTISRDNAKNSLYLQMNSLRAEDTAVYYCARAGEKAMDYWGQGTLVTVSS
VL: EIVLTQSPATLSLSPGERATLSCRASQTINNNLHWYQQKPGQAPRLLIKYASQSISGIPARFSGSGSGTDFTLTISSLEPEDFAVYFCQQFSSWPLTFGGGTKVEIKR
notes: Human IgG2 / kappa
As to B3, in assay [5], the Kd was 0.904 nM, the koff worked out at 0.00128 s⁻¹ and the kon was determined as 1.41e+06 M⁻¹ s⁻¹.

B4: humanized antibody huC1H1-V2 (antibody, human IgG2, kappa, V domains shown)
VH: EVQLVESGGGLVKPGGSLRLSCAASGFTFSNYGISWVRQAPGKGLEWVSSISSGGDNTYYPDNVKGRFTISRDNAKNSLYLQMNSLRAEDTAVYYCARAGEKAMDYWGQGTLVTVSS
VL: EIVLTQSPATLSLSPGERATLSCRASQTINNNLHWYQQKPGQAPRLLIKYASQSISGIPARFSGSGSGTDFTLTISSLEPEDFAVYFCQQFSSWPLTFGGGTKVEIKR
notes: Human IgG2 / kappa
As to B4, in assay [5], the Kd was 0.596 nM, the dissociation rate constant (koff) is 0.000981 s⁻¹ and the kon amounted to 1.65e+06 M⁻¹ s⁻¹.

B5: BM2 (selicrelumab) (antibody, human IgG2, kappa, V domains shown)
VH: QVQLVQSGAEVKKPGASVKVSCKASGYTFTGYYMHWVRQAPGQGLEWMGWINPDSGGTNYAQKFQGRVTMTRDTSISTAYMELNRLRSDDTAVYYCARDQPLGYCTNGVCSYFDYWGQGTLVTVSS
VL: DIQMTQSPSSVSASVGDRVTITCRASQGIYSWLAWYQQKPGKAPNLLIYTASTLQSGVPSRFSGSGSGTDFTLTISSLQPEDFATYYCQQANIFPLTFGGGTKVEIKR
notes: Benchmark antibody, prepared in-house; also called CD40-BM2; benchmark
In the case of B5, the EC50 with human CD40-Fc protein [3] stood at 1.36 nM; with human CD40-Fc protein [4] it was 0.909 nM.

For orientation: Kd means a measure of binding affinity in units of concentration. Broadly, the koff is the first-order rate constant of dissociation. In general, kon refers to the rate constant with which the complex forms. For orientation: EC50 means the midpoint of the concentration-response curve.
